This note sets out measurements from a protein production outcome set (Wang et al. 2014).

This series is described as follows: label from the status in PepcDB records.

Turning to “MYLKHFGLGQAPFSLTPNTGFFFGLSPHVEALQVLQTALQTGEGFIKVTGEVGTGKTLICRKLINELPQGFHCAYLPNPYLTPAELRWAVANELGLKYTSEIDQQQLTGLIQQQLLALSTHGHAIVLVLDEAQALPDESLEALRLFTNLETESRKLLQVVLFGQPELDERLKRQAFRQLRQRITFSYNLRPLTWDETDAYIRYRLAVAGHAGQALFSPKITRKIAQASRGIPRLINILAHKALMLSFGEGATQVRMSHLKGAICDTEDASPTRVQKWSTYFAIAFMVFAVAMLALLLSGTNFLQWWGDGA”, the protein production result was “failed”. Consider “MYLRPDEVARVLEKVGFTVDVVTQKAYGYRRGENYVYVNREARMGRTALVIHPTLKERSSTLAEPASDIKTCDHYQQFPLYLAGERHEHYGIPHGFSSRVALERYLNGLFGEAS”, for which the protein production result is recorded as “failed”. The result for “MYLRSYMGWRFWALFFCLCSPSSVSAERLASSYLKVTEEAASSRQLIRYCVDPDWLPYEAIREGEHVGISSDYIRYIESHSNFKFSLVPTTSWSETLNFLQTGRCELTPMLNKTATREQFLHFSHVYFHSPNVLVSLKEQPFLQGFENIGSRTLAVPKGYRLAEYIQHYYPKVKIIEVGSEPAGLEAVLDKRADLFVGSMFSVNAYIQQTGFNHLKIAGWGGPEDELRMGVSLGHEALLPILNQVLDDVDELERIRIYQKWNNITVIDETNYLLIYQVIVGTLLVVFLLATRTFFISRYNRRLTDKNEQLEALRLRLEHTNAELEFLSTHDPLTKLYNRHYFNRQFVHEHRSEISSEGAICLVMLDIDFFKEINDTLGHAVGDNILMELSGVLQHCVRETDVVARWGGEEFVILCHQTSIDLVKTLCQRIAAAIKDYRFSGNVQLTCSFGIAKLVNNEPMQSCFERADKALYQAKALGRNQICVDEFNT” reads “failed”; that for “MYNPTAIAATNYQILPRRGKHKIFIGMAPGVGKTYRMLEEGHALKQDGVDVAIGLLEAHGREETTLKAEGLELIPRKQVYCRNVLLQEMDTEEILRRSPQLVLIDELAHTNIPGSKQEKRYQDVEKILNAGIDVYSTVNIQHLESLNDLVYRISGVVVRERIPDRIIDDADEIVVVDVTPETLQERLQEGKIYAPEKIDQALQNFFRRSNLIALRELALREIADNIEEESISETKNLHYNIRERVLVCISTYPNSIQLLRRGARIANHMNGQLFVLFVAPAGKFLSKSEALHIETCKRLCQEFTGEFLRIESPNIVTTIVKIATQERITQIVLGETRRSRFQLLFKGSIVQQLMRALPQVDIHIIANN”, “failed”; that for “MYSLFQEGRKMKNTAFLITKNHYPKDYRLKKSPDSDSAMGVAKRILAEVMIFRRVPETISLCGTGCQKCASPHLPKIISAVNKNEPVTFILPAFPGKSPNPEKVLGHLPDHAERLSLNFLGTLCQRIKNFYTPGIKIILCSDGRVFSDVVGMNESDVTAYQLELDRLIKEMSLADLSTFNLDYFYKDLHFVQMREELMKSYGQSLDFLKQKIRNGAKPSASPDEQEANRMYSGITRFLFEDAMHAGQTKSRTAIQKESRFKAYEVIRRSNAWSALIAERFPKAVRLSIHPQTCGSKKLGIRLIGNESWMTPWHGVAVESNKGYVLLRRSEAEALGAKLICSSDGRHSHYQLMAEVSYELLEHHHHHH”, “not failed”. For the sequence “MYSRLPTTYELIEALQASPQAGPAAESRLATVLWAGFVLALVPMLVAGGALVWWHRVLAQVPPAWLPQVFHVLLAVCGVFYVGAWVIRLLDRRAALQHPLRWLTRRLDTQSEVENALLLRLGRIPALQLRARQRRVVLQARLWDASARTMALVLAIGPAAVILADGVAVMAPGGVPALVAIYGAVLVAGCALALFAQLQCSAPLRRLAHVLGEAAEINEAVNRQRQP”, the protein production result was “failed”. Consider “MYTITDIAPTDAEFIALIAALDAWQETLYPAESNHLLDLSQLPPQTVIALAIRSPQGEAVGCGAIVLSEEGFGEMKRVYIDPQHRGQQLGEKLLAALEAKARQRDCHTLRLETGIHQHAAIALYTRNGYQTRCAFAPYQPDPLSVFMEKPLFADLRSAAL”, for which the protein production result is “not failed”. Turning to “MYTKGSVSTRIAKYLFIILIVAGVISSLSLAIMSSNKYDAEAINISGSLRMQSYRLLYEMQEQPESVETNLRRYHISLHSSALLEVQNQFFTPNVLKHSYQNILQRWTNMEKYARQQDVKNYSKQLTDYVADVDYFVFELQRFSEQKWILGVSVLGFAMLLILLMVSYVIWYTNREVVKPLHLMTKASMQVQMRQFNHIPLDTRKQNELGTLARVFTQMSTELGQLYSRLEEAVNEKTQKLRQTNRTLSTLYQSAQLLNTNTINDKILNQVLNYIFISDHLNFVKVEVMGAEHWDITLGKQDANNELQIETLSVDNEELGVLSWQAGLPCPDPRIMQNLAQMLARALYFHKNLRQKEQLLLMEERSIIARELHDSLAQVLSFLQIQLTLLKHNLKKEDEQSKEKSLAIIANFEQALSGGYAQLRELLATFRLTIQEANLQLALKQVIDSLRSQTTMQMNVNCQLPSQSLNPQQLVHVLQIVREATTNAIKHSQGTVIEISARINAEGEYEILVEDDGVGIPNLEEPEGHYGLNIMAERCRQLNAQLHIHRREQGGTQVKITLPHTLY”, the protein production entry is “failed”. With “MYVTKRLSEYKRNPSELTLLPTEGPNSGVLVIQDEESRPTLKCCFVNSFDWELNGLPFPQNTRVIVKRQIGTALYLDPVAFIPVLHQPPSSNLYYVIRGSGKHTGEACVSAKEGDRASCCFCFTYIPEAVPRPLDPFDINQQFEIHQGRSSTKKFFATSVASDGIPPQFLTRKGWSVIFSAPEVEDYGLIDDAKGIVDAKLRYELPDLDNSVVVGKWYVPFLFVKEGDAKDQMYKSMYYSMTLQQRFEEVFFCENVGNNKRFEVVVDVEVETEVVKLEGERIARETQGVNSDGVVWFNASGNEKIGLGSVVLERMKWEEERFGWLNKGYEQRSSIKRTERFEGGGPYWKSYRCYVLVETFELKRTDGSLVLTYEFKHVDKLKSKWD”, the protein production entry is given as “failed”. “NAGFECGTEYLNFDEQPATMLDANLLSVEEGYPVTIIERLRTADGEPVVYCLDKIAKKELTCTEYQMSNGSILSAIKEQSNHNICYADTEIEAVNYEPRISEVLNASPHEGLILLKITHYNELDEPILYSLNYMKNSLVQ”: the protein production result is listed as “failed”. Take “NAKAESVSSGEFNRLRLALLALEARHSKRLGVLILDEIDSNLSGEESEGVARVLQELSRSYQILAISHQPHMPSYAHRHFLVKKEAKGSTIERLDRE”: the protein production entry is “failed”. To “NCKKIGEDSKIIIRQITDNDLELLMAWRSNPLIYKFFYIQKEPLKWEEHYSWWMSRENRVDWIILLRENNTIRKVGSVNVSQLNTDNPEIGILIGEFFLWGKHIGRHSVSLVLKWLKNIGYKKAHARILENNIRSIKLFESLGFKKTKKGRENEWIYEVNL” belongs “not failed”. “NDPDADRFAVAARKADGEYQMLTGDQVGSLFGHYLLSQTDAHRQLVGNTIVSSSLLSKIAAAHGARYYQTLTGFKWLTNVAMQEQTEQHQFLFAYEEALGYTIGSTVWDKDGLSALVAFAQLAAELNAQGKTVWDQLEALYRQHGLHVN”: the protein production result is given as “failed”. On to “NDVFSDEVKKIDDNTFIVEGRMPLDDFNKMFHVELPARGVDTVAGFVLTLTGTIPEEDDKVVVEYDTLRFTVEEMNDARLVSVRVEKDI”, for which the protein production entry is reported as “failed”. In the case of “NELEKGNDGSGTVDPVNASTLVNVYSDKSGSEASLLVGDVLVKDSRTLTLNVPAACEKVYMKYNTVSGTEATKEFALSPVSRGVDQSTGFNFETNRLASVTLALPEDAVQPTNETDQGYLFYHNTGVVMFEDGWPIQLDSWYDEDFNDVVFEYDLKVTECHSQQMMETVGGKEELLLTLDVRAVGGIYPTVLGVVLDGLKSEYVDRITASLILKGGQGTMTDLAKEELSTKNIVKVENKNWNWSNDTRKEPRFAILTVDKAQAEGTVITLDGLTSLMDNNQDMFQVTQGKVREGLPMLRAEVRLIGKEGLTGAERDAQLAAFRELILDTNRQNFFIKVNGGKEIHMRGYAPTSAYKAEYEALVAGDTTLDANVYYSNTKGSTWGVKLPVGTRHAYERVPFREAYPDFTKWVDSKGVSNQKWYENFVDEKTIRYW”, the protein production entry was “not failed”. The result for “NIKNILSERVSAAMVAAGLPEGTNPAISLSNRPQFGDYQANGVMGAAKKLKTNPRELATKVVAELDLDGIASKIELAGPGFINIHLDESWLAAQLNEVAQDDFIGVAQRGTT” reads “not failed”. As for “NITPLKEVQLALAEREAMMQALFDQASQFTALLTPTGKVVKVNQRALDFAGITVDEIVDQDFWETPWWQASEQLKADLKSAIHQAAQGILIRYDVENLGNNGQKVILDFSIRPIYDTDQRIIFLLCEGRDITDKFRIQEALAESEERFRQTFQTTAVSSALISLD”, the protein production result is “failed”. Turning to “NIYDSANELSRGLRGLPEYKAVKAAKDAIAADAEASKIFTDYLAFQEEIQKLAQTGQMPDASFQAKMEGFGKQIQGNSLLSEFFTKQQQLAIYLSDIEKIVFEPVSEL”, the protein production result is listed as “failed”. Regarding “NKEFTWTSALTFTLNNEKVKSLIGGTADHVKNEDYYLSIGYPVNSFYAPKIDGMWQLGEETDAAAFGCAPGDIKINVPGMIKEADGKFYKVGDDGQPLTDKNGDIIYYTKDNKYTYSDADSQVLGHNAPKWTMGFQNSFTYKNFDLTIYAYFRWGQMINYEMLGWYDSTGKGNFPTYFNYWTESNPSNDFPALNANRETKSYIGYGSLNYVDGSFFKIKNITLGYTFPERLLKNAGISKCRLYATITNPLTVAKSHLLKDYDPEMNGALKYPLSKQLVFGVNVSF”, the protein production result is on record as “failed”.

Turning to “NKSIRMTPSQVAFEIRGTLLPGEVFAICGSCDALGNWNPQNAVALLPENDTGESMLWKATIVLSRGVSVQYRYFKGYFLEPKTIGGPCQVIVHKWETHLQPRSITPLESEIIIDDGQFGIHNGVETLDSGWLTCQTEIRLRLHYSEKPPVSITKKKLKKSRFRVKLTLEGLEEDDDDRVSPTVLHKMSNSLEISLISDNEFKCRHSQPECGYGLQPDRWTEYSIQTMEPDNLELIFDFFEEDLSEHVVQGDALPGHVGTACLLSSTIAESGKSAGILTLPIMSRNSRKTIGKVRVDYIIIKPLPGYSCDMKSSFSKYWKPRIPLDVGHRGAGNSTTTAQLAKVQENTIASLRNAASHGAAFVEFDVHLSKDFVPVVYHDLTCCLTMKKKFDADPVELFEIPVKELTFDQLQLLKLTHVTALKSKDRKESVVQEENSFSENQPFPSLKMVLESLPEDVGFNIEIKWICQQRDGMWDGNLSTYFDMNLFLDIILKTVLENSGKRRIVFSSFDADICTMVRQKQNKYPILFLTQGKSEIYPELMDLRSRTTPIAMSFAQFENLLGINVHTEDLLRNPSYIQEAKAKGLVIFCWGDDTNDPENRRKLKELGVNGLIYDRIYDWMPEQPNIFQVEQLERLKQELPELKSCLCPTVSRFVPSSLCGESDIHVDANGIDNVENA”, the protein production result is on record as “not failed”. The result for “NLKVKGARDVFEYMKGRIPDETKEHLFVLFLSTKNQILRHETITIGTLTASLIHPREIFKAAIRESAHSIILVHNHPSGDVQPSNADKQVTSILKKAGDLLQIELLDHVIVGNNDWFSFRDHALL” reads “not failed”. As to “NMPRLRMLMSAFPKGGDLHHHLAGAIDAETMLQWAGDQNLCIDTIKLSVIPSPCDAAVNKKPAKNLERQDPILWNKLIDVFSMRNYHFDVAAGEHSGHDHFFSSFFHFAAALDNNFGRMIAYSRRDAAANNLLYIETMQNPKVVSTFARSVLQDAKGKNSPEDLWKVVKDRLPAAVAAAKAETTEAEAQSRQILQCDGRQPDPACSVTMRYMVFAVRAMPPEMVFAQLALGFALAHSDPRWVGVNIVAPEDGAVSMQDYDLHMQFFRFLRQLYPDVKITLHAGELALPLVPTAGLRDHIRKAVFVAGADRIGHGIDIGSEMNPVEILHHMAERPVPVEINLSSNDAILNIKGNQHPFALYRQYNVPVVISTDDAGVSRNDLTTEYMRAIEEQHVSYSDLKKLSRDSLEYAFLSGEGLWQKNTGESVKPVCSGIAFTAMPQGKCADFLVKNDKAALQWKLEAAFIRYEEQVREGA”, the protein production entry is on record as “failed”.
